# B1: CsgG with a C-terminal 6×His tag (natural protein, E. coli, UniProt P0AEA2 16-277, looked up)
# chain: CLTAPPKEAARPTLMPRAQSYKDLTHLPAPTGKIFVSVYNIQDETGQFKPYPASNFSTAVPQSATAMLVTALKDSRWFIPLERQGLQNLLNERKIIRAAQENGTVAINNRIPLQSLTAANIMVEGSIIGYESNVKSGGVGARYFGIGADTQYQLDQIAVNLRVVNVSTGEILSSVNTSKTILSYEVQAGVFRFIDYQRLLEGEVGYTSNEPVMLCLMSAIETGVIFLINDGIDRGLWDLQNKAERQNDILVKYRHMSVPPES
# notes: CsgG, E. coli K12 MG1655; the full-length csgG gene was expressed and the protein purified from outer membranes; the structure holds residues 16-272 with the C-terminal 5 residues invisible (so 16-277); numbers count on the full-length precursor; also called CsgGHis; C-terminally His-tagged CsgG; not shown: His6, C-terminal, kept
# B2: CsgF_(20–53)-GST (domain or fragment, E. coli, UniProt P0AE98 20-53, looked up)
# chain: GTMTFQFRNPNFGGNPNNGAFLLNSAQAQNSYKD
# notes: CsgF, E. coli, residues 20-53 (N-terminus of the mature CsgF); numbers count on the full-length precursor; also called CsgF_(20–53) fused to GST C-terminally; source: E. coli BL21 (DE3), purified; not shown: GST, C-terminal, kept
# B3: chymotrypsin-digested CsgG (residues 47–252) of the CsgG-CsgF_(20–59) complex (domain or fragment, E. coli, UniProt P0AEA2 47-252, looked up)
# chain: GKIFVSVYNIQDETGQFKPYPASNFSTAVPQSATAMLVTALKDSRWFIPLERQGLQNLLNERKIIRAAQENGTVAINNRIPLQSLTAANIMVEGSIIGYESNVKSGGVGARYFGIGADTQYQLDQIAVNLRVVNVSTGEILSSVNTSKTILSYEVQAGVFRFIDYQRLLEGEVGYTSNEPVMLCLMSAIETGVIFLINDGIDRGLW
# notes: numbers count on the full-length precursor; The His tag goes with the C-terminal residues that chymotrypsin removed; source: E. coli BL21 (DE3), co-expressed with CsgF, purified (Ni-NTA), chymotrypsin proteolysis, size exclusion chromatography; not shown: His6, C-terminal, cleaved
# Assays:
# [1] = target: the molecule itself; test: cryo-EM structure; full-length CsgG-CsgF complex, co-expressed and co-purified in DDM; map at 3.6 Å
# [2] = target: B1; test: pull-down; GST fusions or GST (approximately 0.1 mg) immobilised on glutathione sepharose, approximately 0.2 mg CsgG added, 1 hour at 4°C; washed with 20 mM Tris-HCl pH 7.5, 150 mM NaCl, 5% glycerol, 0.1% DDM; SDS-PAGE and anti-His western blot; conditions: both partners purified
# [3] = target: the molecule itself; test: cryo-EM structure; chymotrypsin-digested CsgG-CsgF_(20–59) complex in 20 mM Tris-HCl pH 8.0, 150 mM NaCl, 0.06% DDM; filaments on the grid; maps at 2.9 Å (head-to-head, D9) and 3.2 Å (head-to-tail, C9)
binder,measurement,setting,value
B1,stoichiometry N,[1],9
B2,binding result,[2],binds
B3,stoichiometry N,[3],9
